Data: patent US20180037654A1

Key:
[1] = biological target: human CTLA-4 (Y166G and Y183G) expressed on CHO-K1.hCTLA-4 cells (human) (UniProt P16410); test: CELISA on CHO-K1.hCTLA-4 cells (Example 6)
[2] = biological target: human CTLA-4 (Y166G and Y183G) expressed on CHO-K1.hCTLA-4 cells (human) (UniProt P16410); test: CELISA, blockade of biotinylated hCD80/Fc binding to CHO-K1.hCTLA-4 cells (Example 6)
[3] = biological target: human CTLA-4 (Y166G and Y183G) expressed on CHO-K1.hCTLA-4 cells (human) (UniProt P16410); test: CELISA, blockade of biotinylated hCD86/Fc binding to CHO-K1.hCTLA-4 cells (Example 6)
[4] = biological target: human CTLA-4 (human) (UniProt P16410); test: CELISA on CHO-K1 cells transiently transfected with human CTLA-4, panel Human
[5] = biological target: rhCTLA-4/Fc/6His (human); test: BLI (Octet RED96), antibody amine-coupled to biosensor, rhCTLA-4/Fc 2.5-40 nM, 1:1 global fit
[6] = biological target: Mou-Hum-CTLA-4 (mouse/human chimera); test: CELISA on CHO-K1 cells transiently transfected with Mou-Hum-CTLA-4, panel Mouse/Human
Sequence of Mou-Hum-CTLA-4 (mouse/human chimera) (chain, as listed by the source mutant limits assumed): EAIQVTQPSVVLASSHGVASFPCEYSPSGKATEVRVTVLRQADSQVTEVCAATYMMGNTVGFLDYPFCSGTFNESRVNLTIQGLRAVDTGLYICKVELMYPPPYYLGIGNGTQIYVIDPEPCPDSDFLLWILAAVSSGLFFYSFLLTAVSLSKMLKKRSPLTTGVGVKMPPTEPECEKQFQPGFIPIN

Sequence of CP-675,206 (antibody) (VH): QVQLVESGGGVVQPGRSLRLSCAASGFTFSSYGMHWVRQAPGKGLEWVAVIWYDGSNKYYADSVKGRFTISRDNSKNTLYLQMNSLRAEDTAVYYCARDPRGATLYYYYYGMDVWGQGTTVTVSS
Sequence of CP-675,206 (antibody) (VL): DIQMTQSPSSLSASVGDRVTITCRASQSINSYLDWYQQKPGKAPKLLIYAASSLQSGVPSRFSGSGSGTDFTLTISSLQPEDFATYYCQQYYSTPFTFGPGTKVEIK
Sequence of human CTLA-4 (Y166G and Y183G) expressed on CHO-K1.hCTLA-4 cells (human) (P16410 36-223 Y201G/Y218G limits assumed): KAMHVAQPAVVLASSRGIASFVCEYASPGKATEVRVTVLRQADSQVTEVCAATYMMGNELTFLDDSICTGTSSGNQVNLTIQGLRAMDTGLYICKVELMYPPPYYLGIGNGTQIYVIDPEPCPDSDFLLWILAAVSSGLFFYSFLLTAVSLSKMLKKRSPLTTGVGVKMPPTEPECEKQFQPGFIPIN
Sequence of human CTLA-4 (human) (P16410 36-223 limits assumed): as the sequence (P16410 36-223 Y201G/Y218G limits assumed) above, with G166Y, G183Y counted along it
Sequence of rhCTLA-4/Fc/6His (human) (chain, as listed by the source limits assumed): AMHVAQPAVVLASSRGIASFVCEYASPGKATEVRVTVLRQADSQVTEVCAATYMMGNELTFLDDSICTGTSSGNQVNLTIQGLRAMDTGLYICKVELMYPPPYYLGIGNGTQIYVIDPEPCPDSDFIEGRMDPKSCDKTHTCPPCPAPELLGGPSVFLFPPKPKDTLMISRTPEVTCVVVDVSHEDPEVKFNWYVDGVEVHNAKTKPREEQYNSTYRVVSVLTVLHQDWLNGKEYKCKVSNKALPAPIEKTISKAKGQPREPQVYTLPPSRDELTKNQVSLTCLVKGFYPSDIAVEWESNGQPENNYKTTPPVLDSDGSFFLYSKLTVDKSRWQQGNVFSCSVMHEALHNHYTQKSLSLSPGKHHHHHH

With CP-675,206 (antibody) the EC50 [1] was 0.037 nM, the IC50 [2] was 1.75 nM and the IC50 [3] was 1.69 nM. For the same substance, the EC50 (read off the curve) [4] was 0.05 nM, the Kd [5] was 3.4 nM and the EC50 (read off the curve) [6] was 0.04 nM.
